Measured values from PMC4380140 (Journal of biomolecular screening, 2012).

Legend:
SEC = biological target: the molecule itself; test: SEC
dynamic light scattering = biological target: the molecule itself; test: dynamic light scattering

Row | Protein | binding result (SEC) | stoichiometry N (dynamic light scattering)
1 | ectodomain ephrinB1 (ed-ephrinB1), amino acids 26-236 of mouse ephrinB1 extracellular domain (domain or fragment, UniProt P52795 26-236, looked up) TPLAKNLEPVSWSSLNPKFLSGKGLVIYPKIGDKLDIICPRAEAGRPYEYYKLYLVRPEQAAACSTVLDPNVLVTCNKPHQEIRFTIKFQEFSPNYMGLEFKKYHDYYITSTSNGSLEGLENREGGVCRTRTMKIVMKVGQDPNAVTPEQLTTSRPSKESDNTVKTATQAPGRGSQGDSDGKHETVNQEEKSGPGAGGGGSGDSDSFFNSK | binds | 
2 | ectodomain ephrinB3 (ed-ephrinB3), amino acids 28-227 of mouse ephrinB3 extracellular domain (domain or fragment, UniProt O35393 28-227, looked up) LSLEPVYWNSANKRFQAEGGYVLYPQIGDRLDLLCPRARPPGPHSSPSYEFYKLYLVEGAQGRRCEAPPAPNLLLTCDRPDLDLRFTIKFQEYSPNLWGHEFRSHHDYYIIATSDGTREGLESLQGGVCLTRGMKVLLRVGQSPRGGAVPRKPVSEMPMERDRGAAHSAEPGRDTIPGDPSSNATSRGAEGPLPPPSMPA |  | 104 monomers per particle
